Data: paper PMC7498260, “The peroxisome counteracts oxidative stresses by suppressing catalase import via Pex14 phosphorylation” (eLife, 2020)

Biological target: Pex5L (Chinese hamster, ClPex5L) (Chinese hamster, UniProt Q920N5 1-640)
Test: pull-down; GST-Pex14 variants (2 μg) on glutathione-Sepharose beads incubated with Pex5L (2 μg) together with EGFP-PTS1 (4 μg) or HA-catalase (4 μg), 2 hr at 4°C, 50 mM Tris-HCl pH 7.5, 0.15 M NaCl, 1% Triton X-100, 10% glycerol; bound fraction by immunoblot, quantified and normalised by GST-Pex14
Conditions: both partners purified

binding result: binds
B1: HA-catalase (human) (enzyme)
chain: MADSRDPASDQMQHWKEQRAAQKADVLTTGAGNPVGDKLNVITVGPRGPLLVQDVVFTDEMAHFDRERIPERVVHAKGAGAFGYFEVTHDITKYSKAKVFEHIGKKTPIAVRFSTVAGESGSADTVRDPRGFAVKFYTEDGNWDLVGNNTPIFFIRDPILFPSFIHSQKRNPQTHLKDPDMVWDFWSLRPESLHQVSFLFSDRGIPDGHRHMNGYGSHTFKLVNANGEAVYCKFHYKTDQGIKNLSVEDAARLSQEDPDYGIRDLFNAIATGKYPSWTFYIQVMTFNQAETFPFNPFDLTKVWPHKDYPLIPVGKLVLNRNPVNYFAEVEQIAFDPSNMPPGIEASPDKMLQGRLFAYPDTHRHRLGPNYLHIPVNCPYRARVANYQRDGPMCMQDNQGGAPNYYPNSFGAPEQQPSALEHSIQYSGEVRRFNTANDDNVTQVRAFYVNVLNEEQRKRLCENIAGHLKDAQIFIQKKAVKNFTEVHPDYGSHIQALLDKYNAEKPKNAIHTFVQSGSHLAAREKANL
notes: catalase, human (HsCatalase); HA-Catalase amplified from pUcD3/HA-HsCatalase (Otera and Fujiki, 2012) and cloned into pGEX6P-1; The forward primer GST-HA-HsCatalase.BglFw starts with ATG GCT TAT CCA TAC GAC, i.e. the HA tag lies at the N-terminus of catalase; also called HA-HsCatalase; source: E. coli DH5α, GST fusion purified with glutathione-Sepharose beads, isolated by cleaving …
